Assays:
[1] = molecular target: SARS-CoV-2 S蛋白 (Delta变异株, 假病毒) (SARS-CoV-2 Delta variant, UniProt P0DTC2 14-1273); assay: cell-based or functional assay
[2] = molecular target: SARS-CoV-2 S蛋白 (Omicron变异株, 假病毒) (SARS-CoV-2 Omicron variant, UniProt P0DTC2 14-1273); assay: cell-based or functional assay
[3] = molecular target: SARS-Cov-2 Omicron变异株的生物素化RBD(South Africa/CERI-KRISP-K032195/2021) (SARS-CoV-2 Omicron variant, UniProt P0DTC2 319-541)

B1: LHD2 (antibody, V domains shown)
VH: QMQLVQSGPEVKKPGTSLKVSCKASGFAFTTSAVQWVRQARGQPLEWIGWIAVGSGKADYAQRFQERVTISRDMSTTTAYMELSSLSSEDTAVYFCAAPFCTRTTCLDGFDIWGQGTMVTVSS
VL: EIVLTQSPVTLSLSPGERATLSCRAGQSVSRNYLGWYQQKPGQAPRLLIYAASSRATGIPDRFSGRGSGTDFTLTISRLEPEDFAVYYCQQYGTSPWTFGQGTKVEIKV
假病毒中和能力(IC50) [1]: 0.005 µg/mL | 假病毒中和能力(IC50) [2]: 0.045 µg/mL | Kd [3]: < 1 pM

B2: LHD7 (antibody, V domains shown)
VH: QMQLVQSGPEVKKPGTSVKVSCKASGFTFITAAVQWVRQARGQRLEWIGWIAVGSGKTDYAQKFQERVTITRDISTSTAYMEVKSLRSEDTALYYCAAPQCNRTTCLDGFDIWGQGTKVIVSS
VL: EIVLTQSPVTLSLSPGERATLSCRASQSVSRSYLGWYQQKPGQAPRLLIYGASSRATGIPDRFRGSGSGTDFTLTISRLEPEDFAVYYCQQYGTSPWTFGQGTKVEIKV
假病毒中和能力(IC50) [1]: 0.008 µg/mL | 假病毒中和能力(IC50) [2]: 0.025 µg/mL | Kd [3]: < 1 pM

B3: SWB8 (antibody, V domains shown)
VH: EVQLVESGGGLVQPGGSLRLSCAASGFTIRSYEMNWVRQAPGKGLEWVSYISSSGTTIYYADSVKGRFTISRDTAKNSLYLQMNSLRAEDTAVYYCAREGDYPSAEYFHHWGQGTLVTVSS
VL: DIVMTQSSVSLAVSLGERATINCKSSQSVLYSSTNRSYLAWYQQKPGQSPKLLIYWASTRESGVPDRFSGSGSGTDFTLTISSLQAEDVAVYYCQQYYSTRRTFGQGTKLEIKR
假病毒中和能力(IC50) [1]: 0.018 µg/mL | 假病毒中和能力(IC50) [2]: 0.032 µg/mL | Kd [3]: < 1 pM

B4: LHC11 (antibody, V domains shown)
VH: EVQLVESGGGLIQPGGSLKLSCAATEIIVSRNYMTWVRQAPGKGLEWVSIIYPGGSSFYAESVKGRFTISRDEPKNTLFLQMNSLRVEDTAVYYCARGYGDYYFDFWGQGTLVTVSS
VL: EIVLTQSPVTLSLSPGERATLSCRASQSVSSSYLAWYQQKPGQAPRLLIYGASSRATGIPDRFSGSGSGTDFTLTISRLEPEDFAVYYCQQWLTFGGGTKVEIKV
假病毒中和能力(IC50) [1]: 0.027 µg/mL | 假病毒中和能力(IC50) [2]: 0.024 µg/mL | Kd [3]: 960 pM
